Laboratory results published in patent US20210145976A1 (ARO BIOTHERAPEUTICS, published 2021).

Columns and labels:
[1] = target: T1, recombinant biotinylated CD71 extracellular domain (Sino Biologics) with an N-terminal 6His tag (human, UniProt P02786 89-760, biotinylated (sites not given)); assay: screening ELISA, ratio
T1 construct: extracellular domain; also called hCD71; huCD71

[2] = target: T1, recombinant biotinylated CD71 …; assay: screening ELISA

T1 sequence (P02786 other isoform, or with tags, fused parts or gaps): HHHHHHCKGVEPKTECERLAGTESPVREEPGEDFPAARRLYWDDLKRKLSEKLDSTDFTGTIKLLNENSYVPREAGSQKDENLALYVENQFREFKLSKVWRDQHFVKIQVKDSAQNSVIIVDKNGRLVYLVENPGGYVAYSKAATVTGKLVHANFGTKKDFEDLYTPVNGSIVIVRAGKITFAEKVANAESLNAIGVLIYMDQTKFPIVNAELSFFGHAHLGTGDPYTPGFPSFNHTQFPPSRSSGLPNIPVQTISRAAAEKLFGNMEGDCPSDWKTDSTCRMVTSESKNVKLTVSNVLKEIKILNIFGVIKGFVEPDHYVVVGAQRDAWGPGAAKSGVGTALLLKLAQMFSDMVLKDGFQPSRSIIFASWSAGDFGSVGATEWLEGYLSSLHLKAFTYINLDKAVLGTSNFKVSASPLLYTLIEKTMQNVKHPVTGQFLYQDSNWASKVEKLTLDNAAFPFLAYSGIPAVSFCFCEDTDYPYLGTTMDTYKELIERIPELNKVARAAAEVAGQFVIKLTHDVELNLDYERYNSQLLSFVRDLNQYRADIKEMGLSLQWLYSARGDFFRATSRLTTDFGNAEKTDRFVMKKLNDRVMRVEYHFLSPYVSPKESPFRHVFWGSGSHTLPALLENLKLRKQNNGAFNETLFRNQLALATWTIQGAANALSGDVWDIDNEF

Row | Binder | hCD71:HSA [1] | hCD71 [2]
1 | SEQ ID NO 120 (designed binder, FN3 domain) MLPAPKNLVVSRVTEDSARLSWTAPDAAFDSFRIEYIEWWVGGEAIVLTVPGSERSYDLTGLKPGTEYWVDIKGVKGGKRSYPLSAIFTT | 1970 | 3.64e+06
2 | SEQ ID NO 196 (designed binder, FN3 domain) MLPAPKNLVVSRVTEDSARLSWTAPDAAFDSFNIHYVEWWVLGEAIVLTVPGSERSYDLTGLKPGTEYPVYIYGVKGGPKSIPLSAIFTT | 50 | 1.72e+06
3 | SEQ ID NO 127 (designed binder, FN3 domain) MLPAPKNLVVSRVTEDSARLSWTAPDAAFDSFPIPYGESPPSGEAIVLTVPGSERSYDLTGLKPGTEYVVIIRGVKGGGRSGPLSAISTT | 38 | 3.56e+06
4 | SEQ ID NO 173 (designed binder, FN3 domain) MLPAPKNLVVSRVTEDSARLSWTAPDAAFDSFTIHYRELYVQAIVLTVPGSERSYDLTGLKPGTEYLVMIPGVKGGPTSVPLSAIFTT | 47 | 979000
5 | SEQ ID NO 189 (designed binder, FN3 domain) MLPAPKNLVVSRVTEDSARLSWTAPDAAFDSFHEWVYFGEAIVLTVPGSERSYDLTGLKPGTEYFVDIWGVKGGTVSKPLSAIFTT | 29 | 1.96e+06
6 | SEQ ID NO 184 (designed binder, FN3 domain) MLPAPKNLVVSRITEDSARLSWTAPDAAFDSFGIGYYEHKRFGEAIQLSVPGSERSYDLTGLKPGTEYEVDIEGVKGGVLSWPLFAEFTT | 235 | 470000
7 | SEQ ID NO 121 (designed binder, FN3 domain) MLPAPKNLVVSRVTEDSARLSWTAPDAAFDSFSIDYPEFPVRGEAIVLTVPGSERSYDLTGPKPGTEYNVTIQGVKGGFPSMPLSAIFTT | 83 | 2.37e+06
8 | SEQ ID NO 199 (designed binder, FN3 domain) MLPAPKNLVVSRVTEDSARLSWTAPDAAFDSFGIRYFEWWDLGEAIVLTVPGSERSYDPTGLKPGTEYNVTIQGVKGGFPSMPLSAIFTT | 101 | 1.46e+06
9 | SEQ ID NO 140 (designed binder, FN3 domain) MLPAPKNLVVSRVTEDSARLSWTAPDAAFDSFWISYEESDTEGEAIYLRVPGSERSYDLTGLKPGTEYNVTIQGVKGGFPSMPLSAIFTT | 2610 | 4.18e+06
10 | SEQ ID NO 206 (designed binder, FN3 domain) MLPAPKNLVVSRVTEDSARLSWTAPDAAFDSFDIEYDELWKNGEAIVLTVPGSERSYDLTGLKPGTEYRVFIYGVKGGYGSFPLSAIFTT | 314 | 833000
11 | SEQ ID NO 111 (designed binder, FN3 domain) MLPAPKNLVVSRVTEDSARLSWTAPDAAFDSFWIYYYESVGTGEAIVLTVPGSERSYDLTGLKPGTEYFVDISGVKVGTYSLPLSAIFTT | 322 | 2.4e+06
12 | SEQ ID NO 157 (designed binder, FN3 domain) MLPAPKNLVVSRVTEDSARLSWTAPDAAFDSFAIEYYEYVGNGEAIVLTVPGSERSYDLTGLKPGTEYQVGIYGVKGGYYSRPLSAIFTT | 1080 | 2.66e+06
13 | SEQ ID NO 191 (designed binder, FN3 domain) MLPAPENLVVSRVTEDSARLSWTAPDAAFDSFEITYEENWRRGEAIVLTVPGSERSYDLTGPKPGTEYIVIIQGVKGGAESWPLSAIFTT | 43 | 1.47e+06
14 | SEQ ID NO 113 (designed binder, FN3 domain) MLPAPKNLVVSRVTEDSARLSWTAPDAAFDSFDIHYKEHSWWGEAIVLTVPGSERSYDLTGLKPGTEYIVPIPGVKGGGISRPLSAIFTT | 95 | 2.14e+06
15 | SEQ ID NO 142 (designed binder, FN3 domain) MLPAPKNLVVSRVTKDSARLSWTAPDAAFDSFHIAYEEATTYGEAIFLRVPGSERSYDLTGLKPGTEYEVKIHGVKGGADSKPLVAPFTT | 1000 | 3.41e+06
16 | SEQ ID NO 208 (designed binder, FN3 domain) MLPAPKNLVVSRVTEDSARLSWTAPDAAFDSFGIVYREPYVGGEAIVLTVPGSERSYDLTGLKPGTEYGVPIPGVKGGYDSGPLSAIFTT | 49 | 2.29e+06
17 | SEQ ID NO 126 (designed binder, FN3 domain) MLPAPKNLVVSRVTEDSARLSWTAPDAAFDSFSIDYLELGESGEAIVLTVPGSERSYDLTGLKPGTEYWVYIFGVKGGYPSAPLSAIFTT | 2570 | 4.49e+06

Results, then the binder that gave them:

Row | hCD71:HSA [1] | hCD71 [2] | Binder
18 | 1960 | 3.72e+06 | SEQ ID NO 171 (designed binder, FN3 domain) MLPAPKNLVVSRVTEDSARLSWTAPDAAFDSFAIRYLEWWDVGEAIVLTVPGSERSYDLTGLKPGTEYLVEIKGVKGGKFSYPLSAIFTT
19 | 1160 | 4.31e+06 | SEQ ID NO 172 (designed binder, FN3 domain) MLPAPKNLVVSRVTEDSARLSWTAPDAAFDSFPIEYDEWWALGEAITLIVPASERSYDLTGLKPGTEYVVKIHGVKGGQRSYPLIAFFTT
20 | 240 | 1.21e+06 | SEQ ID NO 161 (designed binder, FN3 domain) MLPAPKNLVVSRVTEDSARLSWTAPDAAFDSFTIRYWEELPTGEAIVLTVPGSERSYDLTGLKPGTEYTVEIFGVKGGYLSRPLSAISTT
21 | 1540 | 2.31e+06 | SEQ ID NO 129 (designed binder, FN3 domain) MLPAPKNLVVSRVTEDSARLSWTAPDAAFDSFDIEYYEAVGAGEAIVLTVPGSERSYDLTGLKPGTEYTVGIYGVKGGWLSKPLSVIFTT
22 | 1020 | 3.38e+06 | SEQ ID NO 203 (designed binder, FN3 domain) MLPAPKNLVVSRVTEDSARLSWTAPDAALDSFRIEYYESYGHGEAIVLTVPGSERSYDLTGLKPGTEYDVGIYGVKGGYYSRPLSAIFTT
23 | 71 | 2.39e+06 | SEQ ID NO 218 (designed binder, FN3 domain) MLPAPKNLVVSRVTEDSARLSWTAPDAAFDSFTILYYEMVGEGEAIVLTVPGSERSYDLTGPKPGTEYWVDIYGVKGGGWSRPLSAIFTT
24 | 204 | 664000 | SEQ ID NO 128 (designed binder, FN3 domain) MLPAPKNLVVSRVTEDSARLSWTAPDAAFDSFIINYIEIVQYGEAIVLTVPGSERSYDLTGLKPGTEYPESIWGVKGGGASSPLSAIFTT
25 | 1090 | 2.02e+06 | SEQ ID NO 186 (designed binder, FN3 domain) MLPAPKNLVVSRVTEDSARLSWTAPDAAFDSFFIGYLESAEAIVLTVPGSERSYDLTGLKPGTEYLVTIQGVKGGIASDPLSAIFTT
26 | 426 | 3.94e+06 | SEQ ID NO 143 (designed binder, FN3 domain) MLPAPKNLVVSRVTEDSARLSWTAPDAAFDSFHIAYEEADSEGEAIYLRVPGSERSYDLTGLKPGTEYSVNIQGVKGGIVSFPLHAEFTT
27 | 239 | 1.45e+06 | SEQ ID NO 130 (designed binder, FN3 domain) MLPAPKNLVVSRVTEDSARLSWTAPDAAFDSFHIPYVEAEVPGEAIQLHVPGSERSYDLTGLKPGTEYYVEIWGVKGGFYSPPLIAEFTT
28 | 71 | 1.84e+06 | SEQ ID NO 155 (designed binder, FN3 domain) MLPAPKNLVVSRVTEDSARLSWTAPDAAFDSFPITYRERSQYGEAIVLTVPGSERSYDLTGLKPGTEYVVPIEGVKGGRGSKPLSAIFTT
29 | 1990 | 3.98e+06 | SEQ ID NO 148 (designed binder, FN3 domain) MLPAPKNLVVSRVTEDSARLSWTAPDAAFDSFHIEYEEQYSTGEAIYLRVPGSERSYDLTGLKPGTEYHVDIEGVKGGRRSFPLNAFFTT
30 | 1710 | 3.16e+06 | SEQ ID NO 119 (designed binder, FN3 domain) MLPAPKNLVVSRVTEDSARLSWTAPDAAFDSFHIEYEETPQKGEAIFLRVPGSERSYDLTGLKPGTEYVVNIRGVKGGDLSSPLGALFTT
31 | 175 | 605000 | SEQ ID NO 124 (designed binder, FN3 domain) MLPAPKNLVVSRVTEDSARLSWTAPDAAFDSFSIDYPEFPVRGEAIVLTVPGSERSYDLTGLKPGTEYAVTIWGVKGGFTSQPLSAIFTT
32 | 73 | 957000 | SEQ ID NO 153 (designed binder, FN3 domain) MLPAPKNLVVSRVTEDSARLSWTAPDAALDSFRIAYTEYFVGGEAIVLTVPGSERSYDLTGLKPGTEYGVGIYGVKGGAGSSPLSAIFTT
33 | 113 | 2.77e+06 | SEQ ID NO 204 (designed binder, FN3 domain) MLPAPKNLVVSRVTEDSARLPWTAPDAAFDSFWISYYESVGYGEAIVLTVPGSERSYDLTGLKPGTEYYVDISGVKGGVYSLPLSAIFTT
34 | 57 | 790000 | SEQ ID NO 209 (designed binder, FN3 domain) MLPAPKNLVVSRVTEDSARLSWTAPDAAFDSFTIPYIEYVWWGEAIVLTVQGSERSYDLTGLKPGTEYPVTIGGVKGGSRSHPLHAHFTT
35 | 106 | 1.2e+06 | SEQ ID NO 201 (designed binder, FN3 domain) MLPAPKNLVVSRVTEDSARLSWTAPDAAFDSFNIDYWETWVIGEAIVLTVPGSERSYDLTGLKPGTEYEVIIPGVKGGTISPPLSAIFTT
36 | 1440 | 3.03e+06 | SEQ ID NO 139 (designed binder, FN3 domain) MLPAPKNLVVSRVTEDSARLSWTAPDAAFDSFDISYWESGKYGEAIVLTVPGSESSYDLTGLKPGTEYLVDIFGVKGGYPSEPLSAIFTT
